Results from paper PMC4338318.

Experiments:
[1] = biological target: Seipin-Myc (wild type) (human) (UniProt Q96G97); assay: atomic force microscopy (AFM); complexes isolated by sequential anti-FLAG and anti-Myc immunoaffinity from triply transfected tsA 201 cells; tapping mode in air
[2] = biological target: FLAG-seipin-Myc (human) (UniProt Q96G97); assay: atomic force microscopy (AFM); complexes isolated by anti-Myc immunoaffinity from co-transfected tsA 201 cells and eluted; tapping mode in air; particle volumes and decorations

stoichiometry N [1]	Substance	percent of seipin particles doubly decorated by AGPAT2 plus lipin 1 [1] [%]	percent of seipin particles doubly decorated [2] [%]	percent of seipin particles triply decorated [2] [%]	stoichiometry N [2]
–	FLAG-AGPAT2 (from UniProt O15120 24-278) (enzyme)	10.1	12.8	1	–
–	FLAG-seipin-Myc (from UniProt Q96G97 1-398) (natural protein)	–	–	–	12
–	HA-lipin 1α (from UniProt Q14693 1-890) (enzyme)	10.1	9	–	–
12	Seipin-Myc (wild type) (from UniProt Q96G97 1-398) (natural protein)	–	–	–	–
